Test results taken from PMC8808184.

Columns and labels:
[1] = target: E1 domain of human APP, biotinylated (human) (UniProt P05067); assay: BLI; BLItz; biotinylated amyloid E1 domain ([…] nM) immobilised on streptavidin tips, CNTN FN1-FN3 in solution; room temperature; 150 mM NaCl, 10 mM Na-Hepes pH 7.5, 1 mg/ml BSA, 0.02% Tween-20; steady state KD from the maximal signal at equilibrium against concentration
[2] = target: E1 domain of human APLP1, biotinylated (human) (UniProt P51693); assay: as above
Chain of E1 domain of human APLP1, biotinylated (human) (P51693 50-212): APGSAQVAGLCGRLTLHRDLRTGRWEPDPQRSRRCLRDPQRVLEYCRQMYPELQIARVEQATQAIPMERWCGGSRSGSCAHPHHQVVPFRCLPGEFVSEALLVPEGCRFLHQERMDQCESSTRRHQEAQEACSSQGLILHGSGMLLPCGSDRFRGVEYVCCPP

[3] = target: E1 domain of human APP, biotinylated (human) (UniProt P05067); assay: BLI; BLItz; biotinylated amyloid E1 domain ([…] nM) immobilised on streptavidin tips, CNTN FN1-FN3 in solution; room temperature; 150 mM NaCl, 10 mM Na-Hepes pH 7.5, 1 mg/ml BSA, 0.02% Tween-20; average constants of the kinetic fit (the paper says koff attained or exceeded the accuracy limits of the instruments)
[4] = target: E1 domain of human APLP1, biotinylated (human) (UniProt P51693); assay: as above
[5] = target: E1 domain of human APLP2, biotinylated (human) (UniProt Q06481); assay: as above
Chain of E1 domain of human APLP2, biotinylated (human) (Q06481 46-205): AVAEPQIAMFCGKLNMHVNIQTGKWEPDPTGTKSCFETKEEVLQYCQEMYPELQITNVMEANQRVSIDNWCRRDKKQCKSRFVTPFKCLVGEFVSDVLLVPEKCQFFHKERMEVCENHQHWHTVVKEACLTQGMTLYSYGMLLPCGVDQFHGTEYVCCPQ

[6] = target: E1 domain of chicken APP (chicken); assay: BLI; biotinylated E1 domain ([…] nM) immobilised on streptavidin tips, CNTN FN1–FN3 in solution; room temperature; 150 mM NaCl, 10 mM Na-Hepes pH 7.5, 1 mg/ml BSA, 0.02% Tween-20; BLItz or Octet K2; KD from the signal at equilibrium
[7] = target: FN1–FN3 region of zebrafish CNTN4 (zebrafish); assay: BLI; biotinylated zebrafish CNTN4(FN1–FN3) immobilised on streptavidin sensors, E1 domains of zebrafish APPb or APLP2 in solution; Octet K2; KD from the signal at equilibrium
[8] = target: E1 domain of chicken APP, biotinylated (chicken); assay: BLI; BLItz; biotinylated amyloid E1 domain ([…] nM) immobilised on streptavidin tips, CNTN FN1-FN3 in solution; room temperature; 150 mM NaCl, 10 mM Na-Hepes pH 7.5, 1 mg/ml BSA, 0.02% Tween-20; steady state KD from the maximal signal at equilibrium against concentration
[9] = target: E1 domain of chicken APP, biotinylated (chicken); assay: BLI; BLItz; biotinylated amyloid E1 domain ([…] nM) immobilised on streptavidin tips, CNTN FN1-FN3 in solution; room temperature; 150 mM NaCl, 10 mM Na-Hepes pH 7.5, 1 mg/ml BSA, 0.02% Tween-20; average constants of the kinetic fit (the paper says koff attained or exceeded the accuracy limits of the instruments)
[10] = target: E1 domain of chicken APLP2, biotinylated (chicken); assay: as above
[11] = target: E1 domain of zebrafish APPb (zebrafish); assay: BLI; biotinylated E1 domain ([…] nM) immobilised on streptavidin tips, CNTN FN1–FN3 in solution; room temperature; 150 mM NaCl, 10 mM Na-Hepes pH 7.5, 1 mg/ml BSA, 0.02% Tween-20; BLItz or Octet K2; KD from the signal at equilibrium
[12] = target: extracellular region of amyloid precursor protein (APP) fused to human IgG1 Fc or to FcYTS (UniProt P12023); assay: AlphaScreen or HTRF; ectodomain-FcYTS on Strep-Tactin donor beads and ectodomain-Fc on protein A acceptor beads; dialysed HEK293 conditioned media; both tag orientations; 1 h at room temperature; 150 mM NaCl, 20 mM Na-Hepes pH 7.5, 2 mM CaCl2, 2 mM MgCl2, BSA, Triton X-100, Tween-20; a pair counts with signal over background of at least two in each orientation
[13] = target: FN1-FN3 domains of zebrafish CNTN4, biotinylated (zebrafish); assay: BLI; Octet K2; biotinylated FN1-FN3 domains of zebrafish CNTN4 immobilised on streptavidin sensors, E1 domains of zebrafish APPb or APLP2 in solution; average constants of the kinetic fit
[14] = target: FN1-FN3 domains of zebrafish CNTN4, biotinylated (zebrafish); assay: BLI; Octet K2; biotinylated FN1-FN3 domains of zebrafish CNTN4 immobilised on streptavidin sensors, E1 domains of zebrafish APPb or APLP2 in solution; steady state KD from the maximal signal at equilibrium against concentration
[15] = target: E1 domain of human APLP2, biotinylated (human) (UniProt Q06481); assay: BLI; BLItz; biotinylated amyloid E1 domain ([…] nM) immobilised on streptavidin tips, CNTN FN1-FN3 in solution; room temperature; 150 mM NaCl, 10 mM Na-Hepes pH 7.5, 1 mg/ml BSA, 0.02% Tween-20; steady state KD from the maximal signal at equilibrium against concentration
[16] = target: E1 domain of zebrafish APPb, biotinylated (zebrafish); assay: BLI; BLItz; biotinylated amyloid E1 domain ([…] nM) immobilised on streptavidin tips, CNTN FN1-FN3 in solution; room temperature; 150 mM NaCl, 10 mM Na-Hepes pH 7.5, 1 mg/ml BSA, 0.02% Tween-20; average constants of the kinetic fit (the paper says koff attained or exceeded the accuracy limits of the instruments)
[17] = target: E1 domain of chicken APLP2 (chicken); assay: BLI; biotinylated E1 domain ([…] nM) immobilised on streptavidin tips, CNTN FN1–FN3 in solution; room temperature; 150 mM NaCl, 10 mM Na-Hepes pH 7.5, 1 mg/ml BSA, 0.02% Tween-20; BLItz or Octet K2; KD from the signal at equilibrium
[18] = target: E1 domain of mouse APP, biotinylated (mouse) (UniProt P12023); assay: BLI; BLItz; biotinylated amyloid E1 domain ([…] nM) immobilised on streptavidin tips, CNTN FN1-FN3 in solution; room temperature; 150 mM NaCl, 10 mM Na-Hepes pH 7.5, 1 mg/ml BSA, 0.02% Tween-20; average constants of the kinetic fit (the paper says koff attained or exceeded the accuracy limits of the instruments)

Chain of FN1-FN3 region of mouse CNTN3 (Q07409 20-1002): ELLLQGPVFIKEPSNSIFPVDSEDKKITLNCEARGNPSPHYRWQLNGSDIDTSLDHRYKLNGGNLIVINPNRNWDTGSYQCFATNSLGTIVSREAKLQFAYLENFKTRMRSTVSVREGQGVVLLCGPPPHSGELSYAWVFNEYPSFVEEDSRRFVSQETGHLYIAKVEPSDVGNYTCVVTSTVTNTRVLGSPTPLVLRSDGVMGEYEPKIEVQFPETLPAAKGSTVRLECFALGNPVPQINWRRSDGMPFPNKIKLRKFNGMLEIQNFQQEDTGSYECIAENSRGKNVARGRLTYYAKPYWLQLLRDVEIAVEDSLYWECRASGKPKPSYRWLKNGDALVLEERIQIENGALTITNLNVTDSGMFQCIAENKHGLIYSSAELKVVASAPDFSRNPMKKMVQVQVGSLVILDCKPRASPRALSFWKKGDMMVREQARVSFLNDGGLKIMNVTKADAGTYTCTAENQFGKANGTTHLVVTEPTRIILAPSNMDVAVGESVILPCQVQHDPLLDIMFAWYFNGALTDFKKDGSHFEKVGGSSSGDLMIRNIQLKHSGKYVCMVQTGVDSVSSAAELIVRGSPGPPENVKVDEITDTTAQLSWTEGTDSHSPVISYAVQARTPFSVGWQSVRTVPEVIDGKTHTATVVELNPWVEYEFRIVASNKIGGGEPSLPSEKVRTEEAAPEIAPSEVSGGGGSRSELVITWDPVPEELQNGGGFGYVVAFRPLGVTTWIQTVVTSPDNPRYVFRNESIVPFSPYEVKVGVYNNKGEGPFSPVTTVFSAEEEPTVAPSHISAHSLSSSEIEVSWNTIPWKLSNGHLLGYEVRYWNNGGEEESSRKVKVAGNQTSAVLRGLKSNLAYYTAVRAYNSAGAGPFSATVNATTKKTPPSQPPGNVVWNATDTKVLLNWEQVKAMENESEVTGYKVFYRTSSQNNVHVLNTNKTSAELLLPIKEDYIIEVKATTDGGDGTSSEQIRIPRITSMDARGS
Chain of ectodomain of contactin 4 (CNTN4) fused to human IgG1 Fc or to FcYTS (Q69Z26 19-1000): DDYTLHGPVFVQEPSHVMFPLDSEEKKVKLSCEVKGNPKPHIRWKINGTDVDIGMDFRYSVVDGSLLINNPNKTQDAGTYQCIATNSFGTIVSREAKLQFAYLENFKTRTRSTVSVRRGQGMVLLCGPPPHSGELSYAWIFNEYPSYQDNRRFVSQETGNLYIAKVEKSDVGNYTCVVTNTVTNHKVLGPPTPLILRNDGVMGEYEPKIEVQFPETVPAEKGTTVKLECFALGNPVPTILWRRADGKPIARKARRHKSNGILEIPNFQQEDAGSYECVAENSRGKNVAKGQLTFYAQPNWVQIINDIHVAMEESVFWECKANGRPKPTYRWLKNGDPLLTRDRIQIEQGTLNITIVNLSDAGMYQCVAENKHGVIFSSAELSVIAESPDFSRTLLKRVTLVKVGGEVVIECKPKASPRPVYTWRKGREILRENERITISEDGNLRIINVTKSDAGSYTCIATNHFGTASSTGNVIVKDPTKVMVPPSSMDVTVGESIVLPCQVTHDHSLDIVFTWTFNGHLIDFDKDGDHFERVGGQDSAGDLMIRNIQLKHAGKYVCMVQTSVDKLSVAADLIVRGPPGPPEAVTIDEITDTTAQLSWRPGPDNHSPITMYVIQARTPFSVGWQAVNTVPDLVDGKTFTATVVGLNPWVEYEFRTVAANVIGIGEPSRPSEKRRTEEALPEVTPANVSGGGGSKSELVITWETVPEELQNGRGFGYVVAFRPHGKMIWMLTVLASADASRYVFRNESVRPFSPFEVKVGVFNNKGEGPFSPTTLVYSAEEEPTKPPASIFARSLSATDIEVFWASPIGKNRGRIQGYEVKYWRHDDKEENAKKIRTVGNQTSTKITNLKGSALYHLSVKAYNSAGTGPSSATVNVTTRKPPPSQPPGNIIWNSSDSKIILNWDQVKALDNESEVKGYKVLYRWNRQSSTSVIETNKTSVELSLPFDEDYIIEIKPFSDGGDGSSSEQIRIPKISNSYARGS

FN1-FN3 region of human CNTN4 (from UniProt Q8IWV2 19-1000) (domain or fragment)
Kd [1]: 8 µM
Kd [2]: 1.5 µM
Kd [3]: 18.7 µM
koff [3]: 0.33 s⁻¹
kon [3]: 19200 M⁻¹ s⁻¹
Kd [4]: 0.4 µM
koff [4]: 0.03 s⁻¹
kon [4]: 64500 M⁻¹ s⁻¹
Kd [5]: 4.8 µM
koff [5]: 0.2 s⁻¹
kon [5]: 43000 M⁻¹ s⁻¹

FN1–FN3 region of chicken CNTN4, T751A and V752A (domain or fragment)
fold reduction in affinity against wild-type chicken CNTN4 [6]: 4 fold

E1 domain of zebrafish APLP2 (domain or fragment)
Kd [7]: 21.4 µM

FN1-FN3 region of chicken CNTN3 (domain or fragment)
Kd [8]: 46.8 µM
Kd [9]: 182 µM
koff [9]: 0.9 s⁻¹
kon [9]: 7250 M⁻¹ s⁻¹

FN1-FN3 region of chicken CNTN4 (domain or fragment)
Kd [9]: 8.2 µM
koff [9]: 0.19 s⁻¹
kon [9]: 33900 M⁻¹ s⁻¹
Kd [10]: 26.6 µM
koff [10]: 0.33 s⁻¹
kon [10]: 21600 M⁻¹ s⁻¹

FN1-FN3 region of chicken CNTN4 T751A, V752A (domain or fragment)
Kd [8]: 20.9 µM
Kd [9]: 441 µM
koff [9]: 0.38 s⁻¹
kon [9]: 10300 M⁻¹ s⁻¹

FN1–FN3 region of zebrafish CNTN5 (domain or fragment)
Kd [11]: 26.8 µM

FN1-FN3 region of human CNTN3 (from UniProt Q9P232 20-1002) (domain or fragment)
Kd [1]: 63.3 µM
Kd [2]: 9.1 µM
Kd [3]: 403 µM
koff [3]: 0.79 s⁻¹
kon [3]: 2560 M⁻¹ s⁻¹
Kd [4]: 4.5 µM
koff [4]: 0.1 s⁻¹
kon [4]: 2190 M⁻¹ s⁻¹

ectodomain of contactin 4 (CNTN4) fused to human IgG1 Fc or to FcYTS (from UniProt Q69Z26 19-1000) (Fc fusion)
luminescent signal [12]: 1.56e+06
luminescent signal divided by the signal of APP-FcYTS with Fc only [12]: 848

FN1–FN3 region of chicken CNTN4, Y781A and E786A (domain or fragment)
Kd [6]: 115 µM

E1 domain of zebrafish APPb (domain or fragment)
Kd [7]: 0.4 µM
Kd [13]: 0.11 µM
koff [13]: 0.03 s⁻¹
kon [13]: 170000 M⁻¹ s⁻¹
Kd [14]: 0.401 µM

FN1-FN3 region of chicken CNTN4 Y781A, E786A (domain or fragment)
Kd [8]: 115 µM
Kd [9]: 330 µM
koff [9]: 0.59 s⁻¹
kon [9]: 5450 M⁻¹ s⁻¹

FN1-FN3 region of human CNTN5 (from UniProt O94779 19-1072) (domain or fragment)
Kd [2]: 10.9 µM
Kd [15]: 38.6 µM
Kd [4]: 9.8 µM
koff [4]: 0.17 s⁻¹
kon [4]: 17700 M⁻¹ s⁻¹
Kd [5]: 36.6 µM
koff [5]: 0.37 s⁻¹
kon [5]: 9440 M⁻¹ s⁻¹

FN1-FN3 region of zebrafish CNTN5 (domain or fragment)
Kd [16]: 64.4 µM
koff [16]: 0.59 s⁻¹
kon [16]: 9560 M⁻¹ s⁻¹

FN1–FN3 region of chicken CNTN4 (domain or fragment)
Kd [6]: 5.4 µM
Kd [17]: 28.2 µM

FN1-FN3 region of mouse CNTN3 (from UniProt Q07409 20-1002) (domain or fragment)
Kd [18]: 2.9 µM
koff [18]: 0.15 s⁻¹
kon [18]: 56200 M⁻¹ s⁻¹
